Measured values as given in patent publication US20130243795A1 (Janssen / Centocor, published 2013).

T1: Human CD27 ECD truncated (ECD 1-121, cleavage site, His6) (human)
T1 construct: also called human CD27 ECD with His Tag; CD27-His
T1 chain: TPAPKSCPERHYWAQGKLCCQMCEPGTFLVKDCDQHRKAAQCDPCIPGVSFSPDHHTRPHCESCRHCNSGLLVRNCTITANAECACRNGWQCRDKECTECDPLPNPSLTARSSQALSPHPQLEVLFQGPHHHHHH


These binders were tested against T2, Human CD27 ECD (ECD 1-173, His6) (human, UniProt P26842 21-193, biotinylated on amine residues (NHS-ester) where used biotinylated) (assay: Fab ELISA; Fab captured by anti-Fd, biotinylated CD27 ECD at 0.2 nM).
T2 construct: also called biotinylated human CD27 ECD
Experimental: For follow-up screening, DNA was prepared from glycerol stocks of phage panning rounds and the pIX gene was excised by NheI/SpeI digestion. After ligation, the DNA was transformed into TG-1 cells and grown on LB/Agar plates overnight. The next day, colonies were picked, grown overnight, and the cultures used for (i) colony PCR and sequencing of the V-regions, and (ii) induction of Fab production. For Fab production, the overnight culture was diluted 10-100 fold in new media and grown for 5-6 hours at 37 degrees C. Fab production was induced by the addition of fresh media containing IPTG and the cultures were grown overnight at 30 degrees C. The following day, the cultures were spun down and the supernatants, containing the soluble Fab proteins, were used for Fab ELISA. For the ELISA, the soluble Fab proteins were captured onto plates by a polyclonal anti-Fd(CH1) antibody. After washing and blocking, biotinylated human CD27 ECD was added at 0.2 nM concentration. This concentration enables ranking of the Fab variants, defined as percent binding of the parent, in which the parent Fab, present as a control in all plates, is defined as 100% binding. The biotinylated CD27 ECD was detected by HRP-conjugated streptavidin and chemiluminescence read in a plate reader. At this concentration of CD27, ranking of the Fab variants, normalized to the parent Fab, is possible.

percent binding of the parent [%]	Binder
≥ 100	M69-derived Fab with VH H239 (Fab, V domains shown, clone of library C27H28L2; pairing with parent L35 inferred) VH: EVQLVQSGAEVKKPGESLKISCKGSGYAFSSSWMNWVRQMPGKGLEWMGRIYAGDGDTNYSPSFQGQVTISADKSISTAYLQWSSLKASDTAMYYCARSDYYGDYGFAYWGQGTLVTVSS VL: DIVMTQSPDSLAVSLGERATINCKASQSVDYAGDSYMNWYQQKPGQPPKLLIYAASNLESGVPDRFSGSGSGTDFTLTISSLQAEDVAVYYCQQSNEDPYTFGQGTKLEIK
≥ 100	M69-derived Fab with VH H237 (Fab, V domains shown, clone of library C27H28L2; pairing with parent L35 inferred) VH: EVQLVQSGAEVKKPGESLKISCKGSGYAFSSSWMNWVRQMPGKGLEWMGRIFVRDGDTNYSPSFQGQVTISADKSISTAYLQWSSLKASDTAMYYCARSDYYGDYGFAYWGQGTLVTVSS VL: DIVMTQSPDSLAVSLGERATINCKASQSVDYAGDSYMNWYQQKPGQPPKLLIYAASNLESGVPDRFSGSGSGTDFTLTISSLQAEDVAVYYCQQSNEDPYTFGQGTKLEIK
≥ 100	M69-derived Fab with VH H236 (Fab, V domains shown, clone of library C27H28L3; pairing with the parent L35 light chain is inferred from the library design) VH: EVQLVQSGAEVKKPGESLKISCKGSGYAFSSSWMNWVRQMPGKGLEWMGRIYPGDGDTNYSPSFQGQVTISADKSISTAYLQWSSLKASDTAMYYCARADYYGDYGFGYWGQGTLVTVSS VL: DIVMTQSPDSLAVSLGERATINCKASQSVDYAGDSYMNWYQQKPGQPPKLLIYAASNLESGVPDRFSGSGSGTDFTLTISSLQAEDVAVYYCQQSNEDPYTFGQGTKLEIK
≥ 100	M69-derived Fab with VH H240 (Fab, V domains shown, clone of library C27H28L2; pairing with parent L35 inferred) VH: EVQLVQSGAEVKKPGESLKISCKGSGYAFSSSWMNWVRQMPGKGLEWMGRIYARDGDTNYSPSFQGQVTISADKSISTAYLQWSSLKASDTAMYYCARSDYYGDYGFAYWGQGTLVTVSS VL: DIVMTQSPDSLAVSLGERATINCKASQSVDYAGDSYMNWYQQKPGQPPKLLIYAASNLESGVPDRFSGSGSGTDFTLTISSLQAEDVAVYYCQQSNEDPYTFGQGTKLEIK
≥ 100	M69-derived Fab with VH H238 (Fab, V domains shown, clone of library C27H28L2; pairing with parent L35 inferred) VH: EVQLVQSGAEVKKPGESLKISCKGSGYAFSSSWMNWVRQMPGKGLEWMGRIYVGDGDTNYSPSFQGQVTISADKSISTAYLQWSSLKASDTAMYYCARSDYYGDYGFAYWGQGTLVTVSS VL: DIVMTQSPDSLAVSLGERATINCKASQSVDYAGDSYMNWYQQKPGQPPKLLIYAASNLESGVPDRFSGSGSGTDFTLTISSLQAEDVAVYYCQQSNEDPYTFGQGTKLEIK

Molecular target: T1, Human CD27 ECD truncated (ECD 1-121, …)
Experiment: ProteOn SPR, culture supernatants

Binder	Kd [nM]
M159 (antibody, human IgG4, V domains shown, also called H25,L220; parental mAb) VH: QVQLVQSGAEVKKPGASVKVSCKASGYAFSSSWMNWVRQAPGQGLEWMGRIYPGDGDTNYNGKFKGRVTMTRDTSTSTVYMELSSLRSEDTAVYYCARSDYYGDYGFAYWGQGTLVTVSS VL: DIQMTQSPSSLSASVGDRVTITCKASQSVDYAGDSYMNWYQQKPGKAPKLLIYAASNLESGVPSRFSGSGSGTDFTLTISSLQPEDFATYYCQQSNEDPYTFGQGTKVEIK	2.23
M153 (antibody, human IgG4, V domains shown, also called H25,L222) VH: QVQLVQSGAEVKKPGASVKVSCKASGYAFSSSWMNWVRQAPGQGLEWMGRIYPGDGDTNYNGKFKGRVTMTRDTSTSTVYMELSSLRSEDTAVYYCARSDYYGDYGFAYWGQGTLVTVSS VL: DIQMTQSPSSLSASVGDRVTITCKASQSVDYVGTSFMNWYQQKPGKAPKLLIYAASNLESGVPSRFSGSGSGTDFTLTISSLQPEDFATYYCQQSNEDPYTFGQGTKVEIK	1.41
M150 (antibody, human IgG4, V domains shown, also called H25,L218) VH: QVQLVQSGAEVKKPGASVKVSCKASGYAFSSSWMNWVRQAPGQGLEWMGRIYPGDGDTNYNGKFKGRVTMTRDTSTSTVYMELSSLRSEDTAVYYCARSDYYGDYGFAYWGQGTLVTVSS VL: DIQMTQSPSSLSASVGDRVTITCKASQSVDYFGDSLMNWYQQKPGKAPKLLIYAASNLESGVPSRFSGSGSGTDFTLTISSLQPEDFATYYCQQSNEDPYTFGQGTKVEIK	4.04
M151 (antibody, human IgG4, V domains shown, also called H25,L224) VH: QVQLVQSGAEVKKPGASVKVSCKASGYAFSSSWMNWVRQAPGQGLEWMGRIYPGDGDTNYNGKFKGRVTMTRDTSTSTVYMELSSLRSEDTAVYYCARSDYYGDYGFAYWGQGTLVTVSS VL: DIQMTQSPSSLSASVGDRVAITCKASQSVDYYNSSFMNWYQQKPGKAPKLLIYAASNLESGVPSRFSGSGSGTDFTLTISSLQPEDFATYYCQQSNEDPYTFGQGTKVEIK	1.07
M152 (antibody, human IgG4, V domains shown, also called H25,L223) VH: QVQLVQSGAEVKKPGASVKVSCKASGYAFSSSWMNWVRQAPGQGLEWMGRIYPGDGDTNYNGKFKGRVTMTRDTSTSTVYMELSSLRSEDTAVYYCARSDYYGDYGFAYWGQGTLVTVSS VL: DIQMTQSPSSLSASVGDRVTITCKASQSVDYWSDSFMNWYQQKPGKAPKLLIYAASNLESGVPSRFSGSGSGTDFTLTISSLQPEDFATYYCQQSNEDPYTFGQGTKVEIK	1.54

Further lines, results first:

Kd [nM]	Binder
0.3	M163 (antibody, human IgG4, V domains shown, also called H196,L223) VH: QVQLVQSGAEVKKPGASVKVSCKASGYAFSSSWMNWVRQAPGQGLEWMGRIYSGDGDTNYNGKFKGRVTMTRDTSTSTVYMELSSLRSEDTAVYYCARSDYYGDYGFAYWGQGTLVTVSS VL: DIQMTQSPSSLSASVGDRVTITCKASQSVDYWSDSFMNWYQQKPGKAPKLLIYAASNLESGVPSRFSGSGSGTDFTLTISSLQPEDFATYYCQQSNEDPYTFGQGTKVEIK
0.27	M164 (antibody, human IgG4, V domains shown, also called H196,L222) VH: QVQLVQSGAEVKKPGASVKVSCKASGYAFSSSWMNWVRQAPGQGLEWMGRIYSGDGDTNYNGKFKGRVTMTRDTSTSTVYMELSSLRSEDTAVYYCARSDYYGDYGFAYWGQGTLVTVSS VL: DIQMTQSPSSLSASVGDRVTITCKASQSVDYVGTSFMNWYQQKPGKAPKLLIYAASNLESGVPSRFSGSGSGTDFTLTISSLQPEDFATYYCQQSNEDPYTFGQGTKVEIK
0.18	M165 (antibody, human IgG4, V domains shown, also called H196,L221) VH: QVQLVQSGAEVKKPGASVKVSCKASGYAFSSSWMNWVRQAPGQGLEWMGRIYSGDGDTNYNGKFKGRVTMTRDTSTSTVYMELSSLRSEDTAVYYCARSDYYGDYGFAYWGQGTLVTVSS VL: DIQMTQSPSSLSASVGDRVTITCKASQSVDYFRTSFMNWYQQKPGKAPKLLIYAASNLESGVPSRFSGSGSGTDFTLTISSLQPEDFATYYCQQSNEDPYTFGQGTKVEIK
1.56	M154 (antibody, human IgG4, V domains shown, also called H25,L221) VH: QVQLVQSGAEVKKPGASVKVSCKASGYAFSSSWMNWVRQAPGQGLEWMGRIYPGDGDTNYNGKFKGRVTMTRDTSTSTVYMELSSLRSEDTAVYYCARSDYYGDYGFAYWGQGTLVTVSS VL: DIQMTQSPSSLSASVGDRVTITCKASQSVDYFRTSFMNWYQQKPGKAPKLLIYAASNLESGVPSRFSGSGSGTDFTLTISSLQPEDFATYYCQQSNEDPYTFGQGTKVEIK
0.43	M162 (antibody, human IgG4, V domains shown, also called H196,L224) VH: QVQLVQSGAEVKKPGASVKVSCKASGYAFSSSWMNWVRQAPGQGLEWMGRIYSGDGDTNYNGKFKGRVTMTRDTSTSTVYMELSSLRSEDTAVYYCARSDYYGDYGFAYWGQGTLVTVSS VL: DIQMTQSPSSLSASVGDRVAITCKASQSVDYYNSSFMNWYQQKPGKAPKLLIYAASNLESGVPSRFSGSGSGTDFTLTISSLQPEDFATYYCQQSNEDPYTFGQGTKVEIK
1.34	M161 (antibody, human IgG4, V domains shown, also called H196,L218) VH: QVQLVQSGAEVKKPGASVKVSCKASGYAFSSSWMNWVRQAPGQGLEWMGRIYSGDGDTNYNGKFKGRVTMTRDTSTSTVYMELSSLRSEDTAVYYCARSDYYGDYGFAYWGQGTLVTVSS VL: DIQMTQSPSSLSASVGDRVTITCKASQSVDYFGDSLMNWYQQKPGKAPKLLIYAASNLESGVPSRFSGSGSGTDFTLTISSLQPEDFATYYCQQSNEDPYTFGQGTKVEIK

Molecular target: T1, Human CD27 ECD truncated (ECD 1-121, …)
Experiment: ProteOn SPR, purified mAb, CD27-His
Experimental: Purified mAbs were analyzed for affinity to CD27-His on ProteOn.

Kd [nM]	koff [s⁻¹]	kon [M⁻¹ s⁻¹]	Binder
0.058	0.000145	2.49e+06	M669 (antibody, V domains shown, isotype not restated (path 2); also called H256,L266) VH: QVQLVQSGAEVKKPGASVKVSCKASGYAFSSSWMNWVRQAPGQGLEWMGRIYSGDADTNYNQKFKGRVTMTRDTSTSTVYMELSSLRSEDTAVYYCARSDYYGDYGFAYWGQGTLVTVSS VL: DIQMTQSPSSLSASVGDRVTITCKASQSVDYAGESFMNWYQQKPGKAPKLLIYAASNLESGVPSRFSGSGSGTDFTLTISSLQPEDFATYYCQQSNEDPYTFGQGTKVEIK
0.144	0.000264	1.83e+06	M672 (antibody, V domains shown, isotype not restated (path 2); also called H255,L217) VH: QVQLVQSGAEVKKPGASVKVSCKASGYAFSSSWMNWVRQAPGQGLEWMGRIYSGDADTNYAQKFKGRVTMTRDTSTSTVYMELSSLRSEDTAVYYCARSDYYGDYGFAYWGQGTLVTVSS VL: DIQMTQSPSSLSASVGDRVTITCKASQSVDYAHESFMNWYQQKPGKAPKLLIYAASNLESGVPSRFSGSGSGTDFTLTISSLQPEDFATYYCQQSNEDPYTFGQGTKVEIK
0.1	0.000189	1.89e+06	M673 (antibody, V domains shown, isotype not restated (path 2); also called H256,L217) VH: QVQLVQSGAEVKKPGASVKVSCKASGYAFSSSWMNWVRQAPGQGLEWMGRIYSGDADTNYNQKFKGRVTMTRDTSTSTVYMELSSLRSEDTAVYYCARSDYYGDYGFAYWGQGTLVTVSS VL: DIQMTQSPSSLSASVGDRVTITCKASQSVDYAHESFMNWYQQKPGKAPKLLIYAASNLESGVPSRFSGSGSGTDFTLTISSLQPEDFATYYCQQSNEDPYTFGQGTKVEIK
0.065	0.000113	1.73e+06	M670 (antibody, V domains shown, isotype not restated (path 2); also called H257,L266) VH: EVQLVQSGAEVKKPGESLKISCKGSGYAFSSSWMNWVRQMPGKGLEWMGRIYSGDADTNYAQKFKGQVTISADKSISTAYLQWSSLKASDTAMYYCARSDYYGDYGFAYWGQGTLVTVSS VL: DIQMTQSPSSLSASVGDRVTITCKASQSVDYAGESFMNWYQQKPGKAPKLLIYAASNLESGVPSRFSGSGSGTDFTLTISSLQPEDFATYYCQQSNEDPYTFGQGTKVEIK
